Entries after “also recorded” stand apart in the source; their conditions may differ. No end group written: not given here.
Legend:
MLL1 PHD3-Bromo cassette [1] = molecular target: T1, MLL1 PHD3-Bromo cassette (Homo sapiens, UniProt Q03164, DEL1666-1702); experiment: Gel filtration complex formation with MLL1 PHD3-Bromo cassette; type: binding; conditions: for binding of CyP33 mutants to PHD3-Bromo: in vitro, Figure 4, lines 7 and 11
[2] = tested on: HOXA9 expression in 293T cells; experiment: HOXA9 expression in transfected 293T cells; type: cell-based; conditions: overexpression, real-time PCR, empty vector control
[3] = tested on: HOXC8 expression in 293T cells; experiment: HOXC8 expression in transfected 293T cells; type: cell-based; conditions: overexpression, real-time PCR, empty vector control
H3 acetylation at HOXA9 = experiment: ChIP with anti-H3 pan acetyl; type: cell-based; conditions: 293T cells, overexpression, anti-H3 pan acetyl (AcH3), typical for at least three independent experiments
HOXA9 = experiment: Anti-HA ChIP of CyP33 binding at HOXA9; type: cell-based; conditions: 293T cells, typical for at least three independent experiments
HOXC8 = experiment: Anti-HA ChIP of CyP33 binding at HOXC8; type: cell-based; conditions: 293T cells, typical for at least three independent experiments
[4] = molecular target: coexpressed MLL1 PHD3-Bromo cassette (residues 1566–1784, with deletion of 1666–1702 ZA loop segment) (human) (UniProt Q03164); experiment: ITC
[5] = molecular target: complex of MLL1 PHD3-Bromo cassette and full-length CyP33 (UniProt Q03164); experiment: ITC
MLL1 PHD3-Bromo cassette [6] = molecular target: T1, MLL1 PHD3-Bromo cassette; experiment: ITC binding of H3K4me peptides to coexpressed MLL1 PHD3-Bromo cassette; conditions: vs H3K4me3 peptide without added Ala
[7] = tested on: HOXC8 locus in K562 cells; conditions: ref Fair et al., 2001; cited from earlier work
H3 acetylation at HOXC8 = experiment: ChIP with anti-H3 pan acetyl; type: cell-based; conditions: 293T cells, overexpression, anti-H3 pan acetyl (AcH3), typical for at least three independent experiments
[8] = tested on: MLL1 PHD3-Bromo cassette (1566–1784); experiment: 1H,15N-HSQC titration of MLL1 PHD3-Bromo cassette with acetyllysine peptides; type: binding; conditions: five equivalents of H4(7-17)K12ac or H4(14-19)K16ac, H3K23ac and H3K27ac data not shown
[9] = tested on: MLL1 Bromo alone (1639–1784); experiment: 1H,15N-HSQC titration of MLL1 Bromo alone with acetyllysine peptides; type: binding; conditions: five equivalents of H4(7-17)K12ac or H4(14-19)K16ac, H3K23ac and H3K27ac data not shown
CyP33 RRM (1–82) = molecular target: T2, CyP33 RRM (1–82) (UniProt Q9UNP9 1-82); experiment: NMR titration
T2 sequence (looked up): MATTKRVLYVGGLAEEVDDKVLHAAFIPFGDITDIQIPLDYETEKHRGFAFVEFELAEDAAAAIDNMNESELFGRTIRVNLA

MLL1 PHD3 domain alone = experiment: Gel filtration complex formation with MLL1 PHD3 alone; type: binding
[10] = tested on: MLL1 PHD3-Bromo mutant, where Pro1629 was replaced by Ala; experiment: Complex formation with MLL1 PHD3-Bromo Pro1629 to Ala mutant; type: binding; conditions: in the absence of CyP33 PPIase domain
MLL1 PHD3 M1606D mutant = experiment: Complex formation with MLL1 PHD3 M1606D; type: binding; conditions: Figure 4, line 10
MLL2 PHD3 = experiment: Gel filtration complex formation with MLL2 PHD3; type: binding
MLL2 PHD3 D1375M mutant = experiment: Complex formation with MLL2 PHD3 D1375M; type: binding; conditions: Figure 4, line 13
MLL1 (1566–1639) = experiment: NMR monitoring of Pro1629 cis-to-trans transition; type: binding; conditions: 1H,13C-HSQC
MLL1 PHD3 = experiment: 1H,15N-HSQC Trp1594 indole resonance on sequential addition; type: binding; conditions: H3K4me3 first (binary complex), then CyP33 RRM (ternary complex)
AU-rich RNAs = conditions: ref Mi et al., 1996; Wang et al., 2008; cited from earlier work
CyP33 RRM (2–82) = molecular target: T3, CyP33 RRM (2–82) (UniProt Q9UNP9 2-82); experiment: NMR structure
T3 sequence (looked up): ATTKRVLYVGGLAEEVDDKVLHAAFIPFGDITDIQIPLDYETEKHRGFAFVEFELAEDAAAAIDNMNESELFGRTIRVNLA

[11] = molecular target: MLL1 PHD3-Bromo Y1581A mutant (human, UniProt Q03164 1566-1665; Q03164 1703-1784, Y1581A); experiment: ITC
[12] = molecular target: MLL1 PHD3-Bromo Q1587A mutant (human, UniProt Q03164 1566-1665; Q03164 1703-1784, Q1587A); experiment: ITC

Molecule: F196E/M197E: CyP33 with F196E/M197E double mutation in the PPIase domain
- binding of CyP33 mutants to PHD3-Bromo (MLL1 PHD3-Bromo cassette [1]): reduced the binding between CyP33 and PHD3-Bromo
- HOXA9 repression [2]: did not cause any repression of either HOX gene; also recorded: not in cells expressing the F51D (green bars)or F196E/M197E
- HOXC8 repression [3]: did not cause any repression of either HOX gene; also recorded: not in cells expressing the F51D (green bars)or F196E/M197E
- H3 acetylation at HOXA9 (H3 acetylation at HOXA9): not in cells expressing the F51D (green bars) and F196E/M197E
- CyP33 binding to HOXA9 (HOXA9): bound to HOXA9 and HOXC8
- CyP33 binding to HOXC8 (HOXC8): bound to HOXA9 and HOXC8

Molecule: H3(1-15)K4me2 peptide (from UniProt P68431 2-16)
- Kd [4]: 6.9 µM
- Kd [5]: 15.2 µM

Molecule: C[C@H](N)C(=O)N[C@@H](C)C(=O)N[C@@H](CCCNC(=N)N)C(=O)N[C@H](C(=O)N[C@@H](CCCC[N+](C)(C)C)C(=O)N[C@@H](CCC(N)=O)C(=O)N[C@H](C(=O)N[C@@H](C)C(=O)N[C@@H](CCCNC(=N)N)C(=O)N[C@@H](CCCCN)C(=O)N[C@@H](CO)C(=O)N[C@H](C(=O)NCC(=O)NCC(=O)N[C@@H](CCCCN)C(=O)N[C@@H](C)C(=O)O)[C@@H](C)O)[C@@H](C)O)[C@@H](C)O [single Ala]
- increase of dissociation constant on N-terminal extension (MLL1 PHD3-Bromo cassette [6]): 6 fold

Molecule: H3K4me3 peptide with a single Ala added at the N terminus
- Kd [4]: 26 µM

Molecule: CyP33: cyclophilin with N-terminal RRM and C-terminal PPIase domain; FLAG-HA-tagged in 293T experiments
- HOXA9 repression [2]: reduced
- HOXC8 repression [3]: reduced
- CyP33 binding to HOXA9 (HOXA9): bound to HOXA9 and HOXC8
- CyP33 binding to HOXC8 (HOXC8): bound to HOXA9 and HOXC8
- repression of HOXC8 locus [7]: repressor of the HOXC8 locus

Molecule: H3(1-15)K4me3 peptide (from UniProt P68431 2-16)
- Kd [4]: 4.3 µM
- Kd [5]: 11.6 µM

Molecule: H3(1-15)K4me1 peptide (from UniProt P68431 2-16)
- Kd [4]: 53 µM

Molecule: F51D: CyP33 with F51D mutation in the RRM domain
- binding of CyP33 mutants to PHD3-Bromo (MLL1 PHD3-Bromo cassette [1]): sufficient to abolish the binding between CyP33 and MLL1 PHD3-Bromo
- HOXA9 repression [2]: did not cause any repression of either HOX gene; also recorded: not in cells expressing the F51D; also recorded: unable to deacetylate and repress target genes
- HOXC8 repression [3]: did not cause any repression of either HOX gene; also recorded: not in cells expressing the F51D; also recorded: unable to deacetylate and repress target genes
- H3 acetylation at HOXA9 (H3 acetylation at HOXA9): not in cells expressing the F51D; also recorded: unable to deacetylate
- H3 acetylation at HOXC8 (H3 acetylation at HOXC8): unable to deacetylate
- CyP33 binding to HOXA9 (HOXA9): variably reduced CyP33 binding; also recorded: only partially disrupted in its ability to bind to HOXA9 and HOXC8
- CyP33 binding to HOXC8 (HOXC8): variably reduced CyP33 binding; also recorded: only partially disrupted in its ability to bind to HOXA9 and HOXC8

Molecule: C[C@H](N)C(=O)N[C@@H](C)C(=O)N[C@@H](C)C(=O)N[C@@H](C)C(=O)N[C@@H](CCCNC(=N)N)C(=O)N[C@H](C(=O)N[C@@H](CCCC[N+](C)(C)C)C(=O)N[C@@H](CCC(N)=O)C(=O)N[C@H](C(=O)N[C@@H](C)C(=O)N[C@@H](CCCNC(=N)N)C(=O)N[C@@H](CCCCN)C(=O)N[C@@H](CO)C(=O)N[C@H](C(=O)NCC(=O)NCC(=O)N[C@@H](CCCCN)C(=O)N[C@@H](C)C(=O)O)[C@@H](C)O)[C@@H](C)O)[C@@H](C)O [Ala-Ala-Ala tri-peptide]
- increase of dissociation constant on N-terminal extension (MLL1 PHD3-Bromo cassette [6]): 15 fold

Molecule: H4(7-17)K12ac: acetylated histone H4 peptide
- complexation shifts, PHD3-Bromo cassette [8]: did not observe any complexation shifts
- complexation shifts, Bromo alone [9]: did not observe any complexation shifts

Molecule: H4(14-19)K16ac: acetylated histone H4 peptide
- complexation shifts, PHD3-Bromo cassette [8]: did not observe any complexation shifts
- complexation shifts, Bromo alone [9]: did not observe any complexation shifts

Molecule: H3K4me3 peptide with an Ala-Ala-Ala tripeptide added at the N terminus
- Kd [4]: 64 µM

B1: MLL1 (1566–1639) (domain or fragment, human, UniProt Q03164 1566-1639, looked up)
chain: GNFCPLCDKCYDDDDYESKMMQCGKCDRWVHSKCENLSDEMYEILSNLPESVAYTCVNCTERHPAEWRLALEKE
- binding result (CyP33 RRM (1–82)): binds

B2: CyP33 RRM: RRM domain (1–82) of CyP33 (protein)
chain: MATTKRVLYVGGLAEEVDDKVLHAAFIPFGDITDIQIPLDYETEKHRGFAFVEFELAEDAAAAIDNMNESELFGRTIRVNLA
- complex formation with PHD3 alone (MLL1 PHD3 domain alone): formed a complex with the PHD3 domain alone
- complex formation with PHD3-Bromo cassette (MLL1 PHD3-Bromo cassette [1]; gel filtration): not with the PHD3-Bromo cassette
- interaction with PHD3-Bromo P1629A [10]: interacted with a PHD3-Bromo mutant
- complex formation with MLL1 PHD3 M1606D (MLL1 PHD3 M1606D mutant): completely disrupted its complex formation with CyP33 RRM
- binding to MLL2 PHD3 (MLL2 PHD3): does not bind CyP33 RRM
- binding to MLL2 PHD3 D1375M (MLL2 PHD3 D1375M mutant): converted MLL2 PHD3 to a CyP33 RRM binding partner
- His1628-Pro1629 peptide bond configuration change (MLL1 (1566–1639)): transits from cis-to-trans configuration upon interaction with CyP33 RRM
- Pro1629 Cγ chemical shift upon addition (MLL1 (1566–1639); major cross peak 25.3 ppm (cis) in free state): 27.5 ppm
- Trp1594 indole resonance shift on sequential addition (MLL1 PHD3): upfield shift
- RNA preference (AU-rich RNAs): some preference for AU-rich RNAs

Molecule: MMQCGKCDRWVHSKCENLSDEMYEILSNLPESVAYTCVNCTERH (domain or fragment, human, UniProt Q03164 1585-1628, looked up) [interacting segment of MLL1 PHD3 (1585–1628)]
- binding result (CyP33 RRM (2–82)): binds

Molecule: ARTK(Me3)QTARKSTGGKA (peptide, UniProt P68431 2-16, looked up) [H3(1-15)K4me3 peptide]
- binding result [11]: binds
- binding result [12]: binds
